Molecular target: T1, human Kir2.1 channel, wild type (human), P63252
T1 chain: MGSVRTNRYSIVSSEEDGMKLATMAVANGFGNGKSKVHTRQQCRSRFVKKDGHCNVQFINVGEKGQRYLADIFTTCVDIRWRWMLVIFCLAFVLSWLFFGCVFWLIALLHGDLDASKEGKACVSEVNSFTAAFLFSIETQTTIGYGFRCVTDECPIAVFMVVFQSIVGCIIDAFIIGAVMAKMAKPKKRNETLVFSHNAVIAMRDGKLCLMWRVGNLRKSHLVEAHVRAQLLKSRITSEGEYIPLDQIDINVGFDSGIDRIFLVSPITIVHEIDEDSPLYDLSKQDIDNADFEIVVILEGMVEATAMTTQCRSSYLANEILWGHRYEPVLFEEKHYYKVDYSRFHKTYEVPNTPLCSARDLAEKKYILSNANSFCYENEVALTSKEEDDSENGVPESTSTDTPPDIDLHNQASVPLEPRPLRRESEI
Assay: SEC
Settings: remark: other sources report otherwise

B1: human Kir2.1 channel, wild type, P63252 1-427 (natural protein)
chain: T1 chain
Work on B1 yielded a stoichiometry N of 4.

Source: PMC9506730
